Experimental data from IntAct's records for PubMed 18776901.

B1: Non-catalytic caspase homolog csp-3 (Caenorhabditis elegans), G5ECW5 (parent)
chain: MFFGKLGGFAFFLQRAVRCDGFIDNFFDRIPKFFQFMKSKFPSHQTSSSQADLLVSFSTSPGFLSFKDETKDTWYIQELYRVIIENAKDTHLADLLTETNRRVVEKYEADKVVFVCKQAPEFWSRFTKQLFFMSRNDVF
partner: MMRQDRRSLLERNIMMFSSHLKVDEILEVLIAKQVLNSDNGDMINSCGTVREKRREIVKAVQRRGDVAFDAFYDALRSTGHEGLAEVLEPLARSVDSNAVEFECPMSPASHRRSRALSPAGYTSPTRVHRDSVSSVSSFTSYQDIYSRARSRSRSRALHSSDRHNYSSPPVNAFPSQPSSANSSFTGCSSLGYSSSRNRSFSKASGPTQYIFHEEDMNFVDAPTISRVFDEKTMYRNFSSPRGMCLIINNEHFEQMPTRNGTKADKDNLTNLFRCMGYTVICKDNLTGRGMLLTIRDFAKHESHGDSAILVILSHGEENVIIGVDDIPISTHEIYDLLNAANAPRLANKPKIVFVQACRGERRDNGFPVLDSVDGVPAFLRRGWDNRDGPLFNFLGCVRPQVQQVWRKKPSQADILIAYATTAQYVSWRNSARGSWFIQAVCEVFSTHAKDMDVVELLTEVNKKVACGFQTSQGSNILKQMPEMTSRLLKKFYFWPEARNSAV

Variants of: B1
Conditions: with ced3_caeel ced-3, P42573

Row | Variant | effect of a mutation on the interaction
1 | F57D | decreasing interaction

Variants of: B1
Conditions: with ced3_caeel ced-3, P42573
Remark: another data set of the same source

Row | Variant | effect of a mutation on the interaction
2 | F57D | decreasing interaction strength
